What is called Kd is the constant that tells how readily two partners part at equilibrium. By koff is commonly meant a measure of how fast the partners let go of each other. The kon is a measure of how fast the partners come together. A low value points to slow association.

Eleven molecules from patent US20190144550A1 (Pfizer, published 2019) can be followed below.

One assay deals with T1, EGFR-mFc (human; mouse, UniProt P00533 25-645).
T1 construct: extracellular domain; Produced in HEK293 cells; also called recombinant EGFR-mFc; not shown: mouse IgG1-Fc domain
Kind of assay: flow cytometry, CAR T cells stained with mFc fusion protein, Day 4. The text has this: To determine target binding specificity of the CARs, recombinant proteins EGFRvII-mFc and EGFR-mFc, which comprise of the extracellular domain of either human EGFRvIII or human wild-type EGFR, respectively, fused with mouse IgG1-Fc domain, were produced in HEK293 cells. […]

The target of assay [1] is T2, Monomeric 8-histidine tagged human EGFRvIII extracellular domain (human, UniProt P00533 298-645).
T2 construct: Analyte in all SPR assays; not shown: 8-histidine tag
Kind of assay: SPR, captured by anti-human Fc, 37 C. The text has this:
(§1) Anti-EGFRvII mouse (m) antibody, m62G7, generated from hybridomas was sequenced and subcloned into suitable vectors for expression as murine-human chimeric antibodies. The CDRs of mouse antibody m62G7 were grafted onto human framework and expressed as human IgG1 recombinant antibody, h62G7. Affinity variants of h62G7 were made by introducing mutations in the CDRs of the heavy and light chains. The affinities of recombinant anti-EGFRvIII chimeric antibody m62G7 and humanized h62G7 antibodies were measured on a surface plasmon resonance Biacore™ T200 biosensor equipped with a research-grade anti-human Fc coupled CM4 sensor chip (GE Healthcare Inc., Piscataway, N.J.). Anti-EGFRvII antibodies were then captured by anti-human Fc. Monomeric 8-histidine tagged human EGFRvIII extracellular domain was then injected as the analyte at 10-fold dilution series with top concentration at 1000 nM. Affinity of anti-EGFRvIII antibodies towards human EGFRvIII was measured at both 25° C. and 37° C.

Assay [2] concerns the target T2, Monomeric 8-histidine tagged human …. The assay can be described thus: SPR, captured by anti-human Fc, 25 C.
Excerpt: as §1

Assay [3] addresses T3, 8-histidine tagged recombinant wild-type protein EGFRwt (UniProt P00533 25-645, limits assumed).
T3 construct: not shown: 8-histidine tag
Kind of assay: SPR, captured by anti-human Fc.

Assay [4] concerns the target T2, Monomeric 8-histidine tagged human …. Kind of assay: SPR, captured by anti-human Fc, 25 C. The protocol:
Human anti-EGFRvIII antibodies were sequenced and subcloned into suitable vectors for expression as recombinant human IgG1 antibodies. […] (Table 9) on a surface plasmon resonance Biacore™ T200 biosensor equipped with an anti-human Fc coupled CM4 sensor chip (GE Healthcare Inc., Piscataway, N.J.). Anti-EGFRvII antibodies were captured by anti-human Fc. Monomeric 8-histidine tagged human EGFRvIII extracellular domain was then injected as the analyte at 10-fold dilution series starting at 1000 nM.
This is another data set of the same source.

B1: 20B9 EGFRvIII specific CAR (other)
chain: QVTLKESGPVLVKPTETLTLTCTVSGFSLSNARMGVSWIRQPPGKALEWLGHIFSTDEKSYSTSLRGRITISKDTSRGLVVLTLTNMDPVDTATYYCARDSSNYEGYFDFWGPGFLVTVSSGGGGSGGGGSGGGGSGGGGSEIVMTQSPATLSVSPGERATLSCRVSQSIGANLAWYQQKFGQAPRLLIYGASTRATGIPVRFSGGGSGTEFTLTISSLQSEDFAIYSCQQYIYWPFTFGPGTTVDIKTTTPAPRPPTPAPTIASQPLSLRPEACRPAAGGAVHTRGLDFACDIYIWAPLAGTCGVLLLSLVITLYCKRGRKKLLYIFKQPFMRPVQTTQEEDGCSCRFPEEEEGGCELRVKFSRSADAPAYQQGQNQLYNELNLGRREEYDVLDKRRGRDPEMGGKPRRKNPQEGLYNELQKDKMAEAYSEIGMKGERRRGKGHDGLYQGLSTATKDTYDALHMQALPPR
notes: Chimeric antigen receptor on primary human T cells
For the molecule B1, the binding result with EGFR-mFc was “no binding”.

B2: m62G7 (antibody, V domains shown)
VH: EVQLQQSGPELVKPGASVKISCKTSGYTFTDYTLHWVKQSHVKSLEWIGGIDPINGGTTYNQKFKGKATLTVDKSSSTAYMELRSLTSEDSAVYYCARGEAMDSWGQGTSVTVSS
VL: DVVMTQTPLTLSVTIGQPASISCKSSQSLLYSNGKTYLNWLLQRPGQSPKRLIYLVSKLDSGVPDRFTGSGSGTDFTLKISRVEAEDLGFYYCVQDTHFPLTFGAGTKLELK
notes: Tested as murine-human chimeric antibody, captured by anti-human Fc; also called recombinant anti-EGFRvIII chimeric antibody m62G7
In the case of B2, in assay [1], the affinity, expressed as Kd, was 207 nM; the koff is 0.17 s⁻¹; the kon worked out at 800000 M⁻¹ s⁻¹. In assay [2], this molecule yielded a Kd of 88.7 nM, a koff of 0.064 s⁻¹ and a kon of 730000 M⁻¹ s⁻¹. Besides, the binding result in assay [3] is given as “no binding (tested: 1000 nM)”.

B3: C6 (antibody, V domains shown)
VH: QVQLVQSGAEVKKPGSSVKVSCKASGDTFSSNAISWVRQAPGQGLEWMGVIIPIFGTADYAQKFQGRVTITADESTSTAYMELSSLRSEDTAVYYCARHTYHEYAGGYYGGAMDPWGQGTLVTVSS
VL: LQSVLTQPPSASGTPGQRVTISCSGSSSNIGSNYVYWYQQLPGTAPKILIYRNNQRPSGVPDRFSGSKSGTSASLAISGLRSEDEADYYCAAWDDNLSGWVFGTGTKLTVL
notes: From a phage library; recombinant human IgG1
In assay [4], B3 yielded a dissociation constant (Kd) of 532 nM, a koff of 0.00894 s⁻¹ and a kon of 16800 M⁻¹ s⁻¹.

B4: 20E12 EGFRvIII specific CAR (other)
chain: EVNLVESGGGLVKPGGSLRLSCEASGFTFSYAWMSWVRQAPGKGLEWVGRIKSIADGGATDYAAPVRNRFTISRDDSRNTLYLEMHSLKTEDTAVYYCTTIPGNDAFDMWGQGTMVTVSSGGGGSGGGGSGGGGSGGGGSDIVLTQSPLSLSVTPGEPASISCRSSQSLLYSNGKNYLDWFLHKPGQSPQLLIYLGSNRASGVPDRFSGSGSGIDFILKISRVEAEDVGVYYCMQAQQTPITFGQGTRLEIKTTTPAPRPPTPAPTIASQPLSLRPEACRPAAGGAVHTRGLDFACDIYIWAPLAGTCGVLLLSLVITLYCKRGRKKLLYIFKQPFMRPVQTTQEEDGCSCRFPEEEEGGCELRVKFSRSADAPAYQQGQNQLYNELNLGRREEYDVLDKRRGRDPEMGGKPRRKNPQEGLYNELQKDKMAEAYSEIGMKGERRRGKGHDGLYQGLSTATKDTYDALHMQALPPR
notes: as for B1
Consider B4, for which the binding result with EGFR-mFc is “no binding”.

B5: 26B9 EGFRvIII specific CAR (other)
chain: EVQLVESWGVLVKPGGSLRLSCAASGFIFNNAWMSWVRQAPGKGLEWIGRIKSKSDGGTTDYAAPVKDRFTISRDDSKDTLYLQMNGLKTEDTAVYFCTTAPGGPFDYWGQGTLVTVSSGGGGSGGGGSGGGGSGGGGSDIVLTQSPLSLPVTPGEPASISCRSSQSLLHRDGFNYLDWFLQKPGQSPQLLIYLASSRASGVPDRFSGSDSGTDFTLKISRVEAEDVGVYYCMQALQTPITFGQGTRLEIKTTTPAPRPPTPAPTIASQPLSLRPEACRPAAGGAVHTRGLDFACDIYIWAPLAGTCGVLLLSLVITLYCKRGRKKLLYIFKQPFMRPVQTTQEEDGCSCRFPEEEEGGCELRVKFSRSADAPAYQQGQNQLYNELNLGRREEYDVLDKRRGRDPEMGGKPRRKNPQEGLYNELQKDKMAEAYSEIGMKGERRRGKGHDGLYQGLSTATKDTYDALHMQALPPR
notes: as for B1
Regarding B5, the binding result with EGFR-mFc is recorded as “no binding”.

B6: 42G9 EGFRvIII specific CAR (other)
chain: QVTLKESGPVLLKPTETLTLTCTVSGFSLSNPRMGVSWIRQPPGKALEWFAHIFSTDEKSLKLSLRSRLTLSKDTSKSQVVLTMTNMAPVDSATYYCARDSSNYEGYFDFWGQGTLVTVSSGGGGSGGGGSGGGGSGGGGSEVVLTQSPATLSVSPGERATLSCRASQSVRSNLAWYQQKSGQAPRLLIYGSTIRATGVPARFSGSGSGTEFTLTISSLQSEDFAVYYCQQYSDWPFTFGPGTKVDIKTTTPAPRPPTPAPTIASQPLSLRPEACRPAAGGAVHTRGLDFACDIYIWAPLAGTCGVLLLSLVITLYCKRGRKKLLYIFKQPFMRPVQTTQEEDGCSCRFPEEEEGGCELRVKFSRSADAPAYQQGQNQLYNELNLGRREEYDVLDKRRGRDPEMGGKPRRKNPQEGLYNELQKDKMAEAYSEIGMKGERRRGKGHDGLYQGLSTATKDTYDALHMQALPPR
notes: as for B1
With B6, in the assay with EGFR-mFc, the binding result is “no binding”.

B7: 32A10 EGFRvIII specific CAR (other)
chain: QVTLKESGPVLVKPTETLTLTCTVSGFSLSNARMGVSWIRQPPGKALEWLAHIFSTDEKSIRRSLRSRLTLSKDTSKSQVVLTMTNMDPVDTATYFCARDSSNYEGYFDYWGQGTLVTVSSGGGGSGGGGSGGGGSGGGGSEVVMTQSPATLSVSPGERVTLSCRASQSVSSNFAWYQQRPGQAPRLLLYGATTRATGLPGRFSGSGSGTENILTISSLQSEDFAIYFCQQYKDWPFTFGPGSKVDIKTTTPAPRPPTPAPTIASQPLSLRPEACRPAAGGAVHTRGLDFACDIYIWAPLAGTCGVLLLSLVITLYCKRGRKKLLYIFKQPFMRPVQTTQEEDGCSCRFPEEEEGGCELRVKFSRSADAPAYQQGQNQLYNELNLGRREEYDVLDKRRGRDPEMGGKPRRKNPQEGLYNELQKDKMAEAYSEIGMKGERRRGKGHDGLYQGLSTATKDTYDALHMQALPPR
notes: as for B1
For B7, the binding result with EGFR-mFc is given as “no binding”.

B8: h62G7-EQ/L6 (antibody, V domains shown)
VH: QVQLVQSGAEVKKPGASVKVSCKASGYTFTDYTLHWVRQAPGQGLEWMGGIWPITGGTTYNQKFKGRVTMTRDTSTSTVYMELSSLRSEDTAVYYCARGEAQGSWGQGTLVTVSS
VL: DVVMTQSPLSLPVTLGQPASISCKSSQSLLYSNGKTYLNWFQQRPGQSPRRLIYQVSKLDSGVPDRFSGSGSGTDFTLKISRVEAEDVGVYYCGQDTHFPLTFGGGTKVEIK
notes: Humanized, human IgG1 recombinant antibody; also called h62G7-L6/EQ
In the case of B8, in assay [1], the Kd stood at 113 nM, the dissociation rate constant (koff) was determined as 0.074 s⁻¹ and the kon amounted to 660000 M⁻¹ s⁻¹. Moreover, in assay [2], the affinity, expressed as Kd, was 43.8 nM; the koff is 0.01 s⁻¹; the kon stood at 240000 M⁻¹ s⁻¹. Also, the binding result in assay [3] is recorded as “no binding (tested: 1000 nM)”.

B9: h62G7-H14/L1-DV (antibody, V domains shown)
VH: QVQLVQSGAEVKKPGASVKVSCKASGYTFTDYTLHWVRQAPGQGLEWMGGIWPITGGTTYNQKFKGRVTMTRDTSTSTVYMELSSLRSEDTAVYYCARGEAEGSWGQGTLVTVSS
VL: DVVMTQSPLSLPVTLGQPASISCKSSQSLLYSNDKTYTNWFQQRPGQSPRRLIYEVSKLDVGVPDRFSGSGSGTDFTLKISRVEAEDVGVYYCGQDTHFPLTFGGGTKVEIK
notes: Humanized, human IgG1 recombinant antibody
In assay [1], B9 yielded a Kd of 1540 nM, a koff of 0.1 s⁻¹ and a kon of 66000 M⁻¹ s⁻¹. Moreover, in assay [2], the affinity, expressed as Kd, was 1090 nM; the koff is 0.02 s⁻¹; the kon is 18000 M⁻¹ s⁻¹. In addition, the binding result in assay [3] is “no binding (tested: 1000 nM)”.

B10: 30D8 EGFRvIII specific CAR (other)
chain: EVQLVESGGGLVKPGGSLRLSCEASGFTFSDAWMSWVRQAPGKGLEWVGRIKSKTDGGTTDYVVPLNGRFIISRDDSRNTLYLQLNNLKTEDTAVYYCTTVPGSYGYWGQGTLVTVSSGGGGSGGGGSGGGGSGGGGSDIVMTQSPLSLPVTPGEPASISCRSSQSLLHNKRNNYLDWFLQKPGQSPQLLIYLASNRASGVPDRFSGGGSGTDFTLKISRVEAEDVGVYYCMQAQQTPITFGQGTRLEIKTTTPAPRPPTPAPTIASQPLSLRPEACRPAAGGAVHTRGLDFACDIYIWAPLAGTCGVLLLSLVITLYCKRGRKKLLYIFKQPFMRPVQTTQEEDGCSCRFPEEEEGGCELRVKFSRSADAPAYQQGQNQLYNELNLGRREEYDVLDKRRGRDPEMGGKPRRKNPQEGLYNELQKDKMAEAYSEIGMKGERRRGKGHDGLYQGLSTATKDTYDALHMQALPPR
notes: as for B1
Take B10: the binding result with EGFR-mFc is listed as “no binding”.

B11: B5 (antibody, V domains shown)
VH: EVQLLESGGGLVQPGGSLRLSCAASGFTFSNYAMSWVRQAPGKGLEWVSDISGGGGRTYYADSVKGRFTISRDNSKNTLYLQMNSLRAEDTAVYYCARAGLLYGGGVYPMDIWGQGTLVTVSS
VL: not shown
notes: as for B3
For the molecule B11, in assay [4], binding was characterised by a dissociation constant (Kd) of 678 nM, the koff was 0.0141 s⁻¹ and the kon is 20800 M⁻¹ s⁻¹.
